Measured values published in patent publication US20260242478A1 (published 2026).
Where no end group is shown, it is not given here.

What was measured:
[1] = biological target: T1, PSMA Fab (biotinylated (site not stated)); assay: clonal phage ELISA on captured PSMA Fab, competitor PSMA antigen pre-incubated
T1 construct: Biotinylated PSMA Fab captured on neutravidin coated plates in the phage ELISA; also called Anti-PSMA Fab; 006 PSMA Fab

[2] = biological target: T1, PSMA Fab; assay: clonal phage ELISA on biotinylated PSMA Fab captured on neutravidin, anti-M13 HRP detection;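 also: crude clonal phage supernatants added to wells pretreated with PSMA antigen in blocking buffer or with blocking buffer only, then briefly incubated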
Method: (§1) Clonal phage were harvested as crude supernatants and screened via standard ELISAs. […] Prior to the addition of clonal phage. wells were incubated with blocking buffer and PSMA antigen or blocking buffer alone. Without washing or aspirating, clonal phage supernatants were then added to the wells and incubated for a short time. Wells were then washed followed by detection of bound phage using a horse radish conjugated anti-M13 antibody.

[3] = biological target: T2, Anti-PSMA Fab; assay: phage binding ELISA on captured anti-PSMA Fab; wells pre-incubated with PSMA antigen as competitor; anti-M13-HRP detection
T2 construct: Biotinylated and captured on neutravidin coated plates in the phage ELISA; also called 006 PSMA Fab
Method: as §1

[4] = biological target: T2, Anti-PSMA Fab; assay: phage binding ELISA; clonal phage supernatant on biotinylated anti-PSMA Fab captured on neutravidin plate; anti-M13-HRP detection
Method: as §1

[5] = biological target: T3, PSMA Fab (006 PSMA Fab), biotinylated (biotinylated (site and chain not stated)); assay: phage ELISA; biotinylated PSMA Fab on neutravidin plate, blocking buffer alone, bound phage detected with HRP anti-M13 antibody
T3 construct: also called Anti-PSMA Fab; anti-PSMA Fab

[6] = biological target: T3, PSMA Fab (006 PSMA Fab), biotinylated; assay: phage ELISA; biotinylated PSMA Fab on neutravidin plate, wells first incubated with PSMA antigen as competitor, HRP anti-M13 detection
Method: as §1

[7] = biological target: T4, PSMA Fab (006 PSMA Fab); assay: clonal phage ELISA on biotinylated PSMA Fab captured on neutravidin, anti-M13 HRP detection;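 also: crude clonal phage supernatants added to wells pretreated with PSMA antigen in blocking buffer or with blocking buffer only, then briefly incubated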
T4 construct: also called Anti-PSMA Fab
Method: as §1

[8] = biological target: T4, PSMA Fab (006 PSMA Fab); assay: clonal phage ELISA on captured PSMA Fab, wells pre-incubated with PSMA antigen as competitor
Method: as §1

Binder	Phage binding ELISA signal, Anti-PSMA Fab with PSMA antigen [1]	Phage binding ELISA signal, Anti-PSMA Fab [2]	Phage binding ELISA signal, Anti-PSMA Fab with PSMA antigen [3]	Phage binding ELISA signal, Anti-PSMA Fab [4]	Phage binding ELISA signal, Anti-PSMA Fab [5]	Phage binding ELISA signal, Anti-PSMA Fab with PSMA antigen [6]	also measured
VEKMCKPAWMCNVF [Phage-3592]	0.0777	1.6	–	–	–	–	–
TFMRCEPVWMCDGF (Tested as clonal phage supernatant) [Phage-3585 (Peptide-180 library clone)]	–	–	0.0709	1.61	–	–	–
ETVRCIPSWMCTGL (Tested as crude clonal phage supernatant; not shown: pIII filament protein of the bacteriophage, fused to the peptide) [Phage-3608, clonal phage showing a Peptide-180 library peptide]	–	–	–	–	1.58	0.0717	–
MPGACVPLWMCYGF [Phage-3590]	0.0685	1.6	–	–	–	–	–
ETMRCEPSWMCIGL (Tested as crude clonal phage supernatant; not shown: pIII filament protein of the bacteriophage, fused to the peptide) [Phage-3613, clonal phage showing a Peptide-180 library peptide]	–	–	–	–	1.57	0.0724	–
NLGWCVPVWMCEGF (Tested as clonal phage supernatant) [Phage-3586 (Peptide-180 library clone)]	–	–	0.101	1.61	–	–	–
EGLRCVPAWMCAGF [Phage-3603]	0.0633	1.58	–	–	–	–	–
YDVVCKPAWMCNGF (Tested as clonal phage supernatant) [Phage-3578 (Peptide-180 library clone)]	–	–	0.0676	1.62	–	–	–
EELMCRPVWMCLGF [Phage-3591]	0.0789	1.6	–	–	–	–	–
DPVMCMPRWMCDGF (Tested as crude clonal phage supernatant; not shown: pIII filament protein of the bacteriophage, fused to the peptide) [Phage-3612, clonal phage showing a Peptide-180 library peptide]	–	–	–	–	1.57	0.0916	–
SHMVCKPTWMCQGF (Tested as crude clonal phage supernatant; not shown: pIII filament protein of the bacteriophage, fused to the peptide) [Phage-3609, clonal phage showing a Peptide-180 library peptide]	–	–	–	–	1.58	0.074	–
LGHWCSPTWMCMGF (Tested as clonal phage supernatant) [Phage-3581 (Peptide-180 library clone)]	–	–	0.11	1.62	–	–	–
DFIRCSPIWMCDGF (Tested as crude clonal phage supernatant; not shown: pIII filament protein of the bacteriophage, fused to the peptide) [Phage-3617, clonal phage showing a Peptide-180 library peptide]	–	–	–	–	1.57	0.0807	–
VETLCRPAWMCWGF [Phage-3598]	0.0788	1.59	–	–	–	–	–
ESRLCVPMWMCSGF (Tested as crude clonal phage supernatant; not shown: pIII filament protein of the bacteriophage, fused to the peptide) [Phage-3616, clonal phage showing a Peptide-180 library peptide]	–	–	–	–	1.57	0.0707	–
VMHRCEPSWMCWGF [Phage-3601]	0.118	1.58	–	–	–	–	–
NIMRCQPSWMCTGF (Tested as clonal phage supernatant) [Phage-3583 (Peptide-180 library clone)]	–	–	0.064	1.61	–	–	–
QLAMCVPLWMCYGF (Tested as clonal phage supernatant) [Phage-3580 (Peptide-180 library clone)]	–	–	0.092	1.62	–	–	–
HEPVCRPEWMCQGF (Tested as clonal phage supernatant) [Phage-3587 (Peptide-180 library clone)]	–	–	0.0717	1.6	–	–	–
VVVSCTPSWMCTGL (Tested as crude clonal phage supernatant; not shown: pIII filament protein of the bacteriophage, fused to the peptide) [Phage-3606, clonal phage showing a Peptide-180 library peptide]	–	–	–	–	1.58	0.0718	–
GWEWCIPEWMCTGL (Tested as crude clonal phage supernatant; not shown: pIII filament protein of the bacteriophage, fused to the peptide) [Phage-3614, clonal phage showing a Peptide-180 library peptide]	–	–	–	–	1.57	0.0625	–
LDRLCLPQWMCVGM (Tested as crude clonal phage supernatant; not shown: pIII filament protein of the bacteriophage, fused to the peptide) [Phage-3615, clonal phage showing a Peptide-180 library peptide]	–	–	–	–	1.57	0.0704	–

Binder	Phage binding ELISA signal, Anti-PSMA Fab with PSMA antigen [1]	Phage binding ELISA signal, Anti-PSMA Fab [2]	Phage binding ELISA signal, Anti-PSMA Fab with PSMA antigen [3]	Phage binding ELISA signal, Anti-PSMA Fab [4]	Phage binding ELISA signal, Anti-PSMA Fab [5]	Phage binding ELISA signal, Anti-PSMA Fab with PSMA antigen [6]	also measured
WTFKCEPVWMCEGF (Tested as crude clonal phage supernatant; not shown: pIII filament protein of the bacteriophage, fused to the peptide) [Phage-3605, clonal phage showing a Peptide-180 library peptide]	–	–	–	–	1.58	0.101	–
QGVACIPTWMCTGF [Phage-3595]	0.0711	1.59	–	–	–	–	–
LERLCRPAWMCDGF [Phage-3596]	0.136	1.59	–	–	–	–	–
QDLKCVPSWMCSGF [Phage-3599]	0.0713	1.59	–	–	–	–	–
ETFTCKPPWMCIGF (Tested as clonal phage supernatant) [Phage-3576 (Peptide-180 library clone)]	–	–	0.104	1.62	–	–	–
FIAQCQPTWMCTGF (Peptide-180 library clone, tested as clonal phage supernatant with the peptide fused to pIII of the bacteriophage) [Phage-3575]	–	–	–	–	–	–	Phage binding ELISA signal, Anti-PSMA Fab [7]: 1.62; Phage binding ELISA signal, Anti-PSMA Fab in presence of PSMA [8]: 0.076
VDRLCMPIWMCEGL (Tested as crude clonal phage supernatant; not shown: pIII filament protein of the bacteriophage, fused to the peptide) [Phage-3611, clonal phage showing a Peptide-180 library peptide]	–	–	–	–	1.58	0.0788	–
HEPVCKPSWMCTGL [Phage-3602]	0.0595	1.58	–	–	–	–	–
WEVRCEPAWMCIGL [Phage-3600]	0.0694	1.59	–	–	–	–	–
ESHLCRPAWMCTGF (Tested as clonal phage supernatant) [Phage-3588 (Peptide-180 library clone)]	–	–	0.089	1.6	–	–	–
VQPACVPIWMCDGL (Tested as crude clonal phage supernatant; not shown: pIII filament protein of the bacteriophage, fused to the peptide) [Phage-3610, clonal phage showing a Peptide-180 library peptide]	–	–	–	–	1.58	0.0782	–
PSPICRPEWMCVWL (Tested as clonal phage supernatant) [Phage-3584 (Peptide-180 library clone)]	–	–	0.0954	1.61	–	–	–
ESYTCVPMWMCTGF (Tested as clonal phage supernatant) [Phage-3582 (Peptide-180 library clone)]	–	–	0.088	1.61	–	–	–
TEIRCQPQWMCHGF [Phage-3594]	0.0698	1.6	–	–	–	–	–
LDIVCRPSWMCYGF (Tested as crude clonal phage supernatant; not shown: pIII filament protein of the bacteriophage, fused to the peptide) [Phage-3607, clonal phage showing a Peptide-180 library peptide]	–	–	–	–	1.58	0.0774	–
TTLMCTPQWMCDGF (Tested as clonal phage supernatant) [Phage-3589 (Peptide-180 library clone)]	–	–	0.0718	1.6	–	–	–
PDPLCVPNWMCIGL [Phage-3593]	0.0686	1.6	–	–	–	–	–
HVAMCQPTWMCMGF (cysteine pairing not given here; also: fused to pIII of bacteriophage, junction and order not given here, Tested as crude clonal phage supernatant; not shown: pIII filament protein of the bacteriophage, fused to the peptide) [Phage-3604, clonal phage showing a Peptide-180 library peptide]	–	–	–	–	1.58	0.123	–
YEKLCEPRWMCDGF (Tested as clonal phage supernatant) [Phage-3577 (Peptide-180 library clone)]	–	–	0.0657	1.62	–	–	–
EIPWCVPSWMCNYF [Phage-3597]	0.0904	1.59	–	–	–	–	–
GMGMCVPTWMCTGM (Tested as clonal phage supernatant) [Phage-3579 (Peptide-180 library clone)]	–	–	0.0797	1.62	–	–	–
